Where no end group is shown, it is not given here.
Key:
[1] = test system: anti-Her2antibody-Fab (IgG-Fab derived from anti-Her2 monoclonal antibody, Trastuzumab); test: Biacore 3000 surface plasmon resonance, affinity of SpG-β1 mutants for immobilized IgG-Fab; type: binding, human; conditions: Table 1, Example 2, GST-fused one-domain peptide; for KA: KA=kon/koff, 1:1 binding model; for KA Vs. Wild: fold of wild-type KA; for kon: 25° C., pH 7.4
Protocol: The Fab fragment was prepared by cleaving a humanized monoclonal IgG formulation as a starting material into a Fab fragment and an Fc fragment by papain, and separating and purifying only the Fab fragment.
Specifically, a humanized monoclonal IgG formulation (Herceptin, manufactured by Chugai Pharmaceutical Co., Ltd., in the case of anti-Her2 monoclonal antibody) was dissolved in a papain digestion buffer (0.1 M AcOH—AcONa, 2 mM EDTA, 1 mM cysteine, pH 5.5). Papain immobilized agarose: Papain Agarose from papaya latex (manufactured by Sigma) was added to the solution and the mixture was incubated at 37° C. for about 8 hours while being mixed with a rotator. The IgG-Fab was collected from flow-through fractions by affinity chromatography using a KanCapA column (manufactured by Kaneka Corporation). Thus, the IgG-Fab was separated and purified from the reaction solution (containing both the Fab fragment and the Fc fragment), which had been separated from the papain immobilized agarose. The separated IgG-Fab solution was purified by gel filtration chromatography using the Superdex 75 10/300 GL column (a standard buffer was used for equilibration and separation) to obtain an IgG-Fab solution.
(§1) The affinity of each of the SpG-β1 mutants produced in Example 1 (2) for the IgG-Fab was analyzed by using a biosensor: Biacore 3000 using surface plasmon resonance principle (manufactured by GE Healthcare Bioscience). In this example, the IgG-Fab produced in Example 2 (1) was immobilized on a sensor chip and each peptide was added on the chip. The interaction between the IgG-Fab and the peptide was detected. The IgG-Fab was immobilized on the sensor chip CM5 by amine coupling using N-hydroxysuccinimide (NHS) and N-ethyl-N′-(3-dimethylaminopropyl)carbodiimide hydrochloride (EDC), and ethanolamine was used for blocking (all the sensor chips and the immobilization reagents were manufactured by GE Healthcare Bioscience). The IgG-Fab solution was about 10-fold diluted in an immobilization buffer (10 mM CH3COOH—CH3COONa, pH 4.5) and the IgG-Fab was immobilized on the sensor chip in accordance with the protocol attached to the Biacore 3000. Further, a reference cell to be used as a negative control was also prepared by immobilizing ethanolamine for another flow cell on the chip after activation by EDC/NHS. Various SpG-31 mutants were appropriately prepared at concentrations of 0.1 to 100 μM by using a running buffer (20 mM NaH2PO4—Na2HPO4, 150 mM NaCl, 0.005% P-20, pH 7.4). Each peptide solution was added on the sensor chip at a flow rate of 40 μL/minute for 60 seconds. A sensorgram of the binding reaction at 25° C. was sequentially plotted during the addition (binding phase, 60 seconds) and after the addition (dissociation phase, 60 seconds). After each sensorgram determination, the sensor chip was regenerated by adding 20 mM NaOH (for 30 seconds).

[2] = target: T1, anti-TNFα antibody-Fab (IgG-Fab derived from anti-TNFα monoclonal antibody, adalimumab) (Homo sapiens, UniProt P01834+P01857); test: as above; type: binding; conditions: for affinity / binding ability for the IgG-Fab compared with the wild-type (in words): Tables 1 and 3, FIGS. 2 and 3
T1 construct: cleaving a humanized monoclonal IgG formulation as a starting material into a Fab fragment and an Fc fragment by papain; purchased
Protocol: as §1
The affinity of the SpG-β1 mutant for the IgG-Fab was measured in the same manner as in the experiment of Example 2.
The affinity of the SpG-β1 mutant for the IgG-Fab was measured in the same manner as in the experiment of Example 3. In this experiment, the measurement was performed on the GST-cleaved type after the GST cleavage (Pep-). Further, not only one domain type (Pep.1d) but also one domain type with Cys at the C-terminus (Pep.1dC) and two domain type with Cys at the C-terminus (Pep.2dC) were used to perform the experiment.

[3] = Table 1, Example 2, GST-fused one-domain peptide, 25° C., pH 7.4
[4] = Table 1, Example 2, GST-fused one-domain peptide, KA=kon/koff, 1:1 binding model
[5] = Table 1, Example 2, fold of wild-type KA, GST-fused one-domain peptide
[6] = Table 2, Example 3, GST-fused one-domain peptide
[7] = Table 2, Example 3, GST-fused one-domain peptide, 25° C., pH 7.4
[8] = Table 2, Example 3, fold of wild-type KA, GST-fused one-domain peptide
[9] = Table 3, Example 4, GST-cleaved type (Pep-), constructs Pep.1d, Pep.1dC, Pep.2dC
[10] = Table 3, Example 4, fold of wild-type KA of the same construct type

In the case of “K10R/K13T/K28Q/F30L/Q32R: GST-fused one-domain SpG-β1 mutant, amino acid SEQ ID NO: 17 (TTYKLILNGRTLTGETTTEAVDAATAEQVLKRYANDNGVDGEWTYDDATKTFTVTE; also: GST-fused, end not given here)”, the KA [1] is reported as 1.72e+06 M⁻¹ and the “KA Vs. Wild” value [1] is reported as 3.2.
With “K13T/E19I/F30L: GST-fused one-domain SpG-β1 mutant, amino acid SEQ ID NO: 15 (TTYKLILNGKTLTGETTTIAVDAATAEKVLKQYANDNGVDGEWTYDDATKTFTVTE; also: GST-fused)” the kon [1] was 141000 s/M, the KA [1] was 1.99e+06 M⁻¹ and the “KA Vs. Wild” value [1] was 3.6. For the same substance, the kon [2, 3] was 92300 s/M, the KA [2, 4] was 1.8e+06 M⁻¹ and the “KA Vs. Wild” value [2, 5] was 2.8.
In the case of “K13T/E19I/V39I: GST-fused one-domain SpG-β1 mutant, amino acid SEQ ID NO: 19 (TTYKLILNGKTLTGETTTIAVDAATAEKVFKQYANDNGIDGEWTYDDATKTFTVTE; also: GST-fused)”, the kon [1] is reported as 222000 s/M, the KA [1] is reported as 2.83e+06 M⁻¹ and the “KA Vs. Wild” value [1] is reported as 5.2. The kon [2, 3] was 145000 s/M, the KA [2, 4] was 2.74e+06 M⁻¹ and the “KA Vs. Wild” value [2, 5] was 4.3.
“K13T/E19I/Y33F/N35Y/V39L: GST-fused one-domain SpG-β1 mutant, amino acid SEQ ID NO: 41 (TTYKLILNGKTLTGETTTIAVDAATAEKVFKQFAYDNGLDGEWTYDDATKTFTVTE; also: GST-fused)” gave a KA [2, 6] of 1.87e+06 M⁻¹, a koff [2, 7] of 0.0049 s⁻¹ and a kon [2, 7] of 90500 s/M. For the same substance, the “KA Vs. Wild” value [2, 8] was 5.0.
With “K13T/F30L/D36G (TTYKLILNGKTLTGETTTEAVDAATAEKVLKQYANGNGVDGEWTYDDATKTFTVTE)” the KA [1] was 3.17e+06 M⁻¹ and the “KA Vs. Wild” value [1] was 5.8.
“K13T/T18A/E19V/F30L/Y33F: GST-fused one-domain SpG-β1 mutant, amino acid SEQ ID NO: 67 (TTYKLILNGKTLTGETTAVAVDAATAEKVLKQFANDNGVDGEWTYDDATKTFTVTE; also: GST-fused)” was tested, and the KA [2, 6] was 2.85e+06 M⁻¹, the koff [2, 7] was 0.0033 s⁻¹ and the kon [2, 7] was 93600 s/M. For the same substance, the “KA Vs. Wild” value [2, 8] was 7.6.
“K13T/V21A/F30L/Y33F/D40E: GST-fused one-domain SpG-β1 mutant, amino acid SEQ ID NO: 51 (TTYKLILNGKTLTGETTTEAADAATAEKVLKQFANDNGVEGEWTYDDATKTFTVTE; also: GST-fused)” gave a KA [2, 6] of 1.78e+06 M⁻¹, a koff [2, 7] of 0.0078 s⁻¹ and a kon [2, 7] of 139000 s/M. The “KA Vs. Wild” value [2, 8] was 4.8.
In the case of “K13T/V21I/A23T/F30L/E42L: GST-fused one-domain SpG-β1 mutant, amino acid SEQ ID NO: 25 (TTYKLILNGKTLTGETTTEAIDTATAEKVLKQYANDNGVDGLWTYDDATKTFTVTE; also: GST-fused)”, the KA [2, 6] is reported as 1.44e+06 M⁻¹, the kon [2, 7] is reported as 85000 s/M and the “KA Vs. Wild” value [2, 8] is reported as 3.9.
With “Pep.1d K10R/K13T/T18A/E19I/V21D/T25M/F30L/Y33F/N35F/D47A: SpG-β1 mutant, SEQ ID NO: 87, GST-cleaved one domain type (TTYKLILNGRTLTGETTAIADDAAMAEKVLKQFAFDNGVDGEWTYDAATKTFTVTE; SpG mutant)” the “affinity constant (KA), order of magnitude” value ([2]; Example 4, GST-cleaved one domain type) was ~10^7 M^−1, the KA [2, 9] was 1.19e+07 M⁻¹ and the koff [2, 9] was 0.0117 s⁻¹. The kon [2, 9] was 138000 s/M, the “KA Vs. Wild” value [2, 10] was 83 and the “KA Vs. Wild” value ([2]; Table 3, Example 4, fold of wild-type KA of the same construct type, listed as Pep-SpGβ1-K10R/K13T/T18A/E19I/V21D/T25M/F30L/Y33F/N35F/D47A.1d) was no less than 80. The “affinity / binding ability for the IgG-Fab compared with the wild-type (in words)” value [2] was “significantly higher affinity for the IgG-Fab than Pep-SpGβ1-Wild.1d”.
“Pep.1d K13T/E19I/V21D/T25M/F30L/Y33F/N35F/D47A (TTYKLILNGKTLTGETTTIADDAAMAEKVLKQFAFDNGVDGEWTYDAATKTFTVTE)” was tested, and the KA [2, 9] was 4.24e+06 M⁻¹, the koff [2, 9] was 0.0257 s⁻¹ and the kon [2, 9] was 109000 s/M. The “KA Vs. Wild” value [2, 10] was 29, the “KA Vs. Wild” value ([2]; Table 3, Example 4, fold of wild-type KA of the same construct type, listed as Pep-SpGβ1-K13T/E19I/V21D/T25M/F30L/Y33F/N35F/D47A.1d) was roughly 30 and the “affinity / binding ability for the IgG-Fab compared with the wild-type (in words)” value [2] was “significantly higher affinity for the IgG-Fab than Pep-SpGβ1-Wild.1d”.
With “Pep.1d K13T/T18A/E19I/V21A/K28I/F30L/Y33F/V39I: SpG-β1 mutant, SEQ ID NO: 85, GST-cleaved one domain type (TTYKLILNGKTLTGETTAIAADAATAEIVLKQFANDNGIDGEWTYDDATKTFTVTE; SpG mutant)” the KA [2, 9] was 5.34e+06 M⁻¹, the koff [2, 9] was 0.0207 s⁻¹ and the kon [2, 9] was 111000 s/M. For the same substance, the “KA Vs. Wild” value [2, 10] was 37 and the “affinity / binding ability for the IgG-Fab compared with the wild-type (in words)” value [2] was “significantly higher affinity for the IgG-Fab than Pep-SpGβ1-Wild.1d”.
“Pep.1dC K10R/K13T/T18A/E19I/V21D/T25M/F30L/Y33F/N35F/D47A (TTYKLILNGRTLTGETTAIADDAAMAEKVLKQFAFDNGVDGEWTYDAATKTFTVTE)” showed a KA [2, 9] of 1.56e+07 M⁻¹, a koff [2, 9] of 0.0062 s⁻¹ and a kon [2, 9] of 97700 s/M. The “KA Vs. Wild” value [2, 10] was 88.
Work on “Pep.1dC K13T/E19I/V21D/T25M/F30L/Y33F/N35F/D47A (TTYKLILNGKTLTGETTTIADDAAMAEKVLKQFAFDNGVDGEWTYDAATKTFTVTE)” yielded a KA [2, 9] of 5.47e+06 M⁻¹, a koff [2, 9] of 0.0137 s⁻¹ and a kon [2, 9] of 74700 s/M. For the same substance, the “KA Vs. Wild” value [2, 10] was 31.
Work on “Pep.1dC K13T/T18A/E19I/V21A/K28I/F30L/Y33F/V39I: SpG-β1 mutant, SEQ ID NO: 85, GST-cleaved one domain type with Cys at the C-terminus (TTYKLILNGKTLTGETTAIAADAATAEIVLKQFANDNGIDGEWTYDDATKTFTVTE; C-terminal Cys; SpG mutant)” yielded a KA [2, 9] of 9.11e+06 M⁻¹, a koff [2, 9] of 0.0097 s⁻¹ and a kon [2, 9] of 88300 s/M. The “KA Vs. Wild” value [2, 10] was 51.
Work on “Pep.2dC K10R/K13T/T18A/E19I/V21D/T25M/F30L/Y33F/N35F/D47A: SpG-β1 mutant, SEQ ID NO: 87, GST-cleaved two domain type with Cys at the C-terminus” yielded a KA [2, 9] of 8.56e+07 M⁻¹, a koff [2, 9] of 0.0014 s⁻¹ and a kon [2, 9] of 117000 s/M. The “KA Vs. Wild” value [2, 10] was 253 and the “KA Vs. Wild” value ([2]; Table 3, Example 4, fold of wild-type KA of the same construct type, listed as Pep-SpGβ1-K10R/K13T/T18A/E19I/V21D/T25M/F30L/Y33F/N35F/D47A.2dC) was no less than 200.
Work on “Pep.2dC K13T/E19I/V21D/T25M/F30L/Y33F/N35F/D47A (TTYKLILNGKTLTGETTTIADDAAMAEKVLKQFAFDNGVDGEWTYDAATKTFTVTE)” yielded a KA [2, 9] of 9.68e+06 M⁻¹, a koff [2, 9] of 0.0058 s⁻¹ and a kon [2, 9] of 55700 s/M. For the same substance, the “KA Vs. Wild” value [2, 10] was 29.
“Pep.2dC K13T/T18A/E19I/V21A/K28I/F30L/Y33F/V39I (TTYKLILNGKTLTGETTAIAADAATAEIVLKQFANDNGIDGEWTYDDATKTFTVTE)” gave a KA [2, 9] of 1.02e+07 M⁻¹, a koff [2, 9] of 0.0062 s⁻¹ and a kon [2, 9] of 63900 s/M. The “KA Vs. Wild” value [2, 10] was 30.
